Experiment [1] concerns the target WT1 RMF (…)/HLA-A2 complex on cells (human). Nature of the experiment: flow cytometry, primary AML cells (FIG. 18 shows sample 92C per paragraph 796) stained with PE-conjugated isotype control mouse IgG at 3 µg/ml; unstained 124. Background: A flow cytometer gives signals particle by particle.
Experiment [2] has as its target HLA-A2 with endogenous peptides on HLA-A2-positive cells not pulsed with peptide (SKLY-16, normal cells of HLA-A2+ donors) (human). Put plainly: flow cytometry, PBMCs of an HLA-A2 positive healthy donor, CD33 against isotype control.
Experiment [3] has the same target. Nature of the experiment: flow cytometry, PBMCs of an HLA-A2 positive healthy donor, CD19 against isotype control.
Experiment [4] shares this target. Nature of the experiment: flow cytometry, whole blood of an HLA-A2 positive healthy donor, neutrophil gate, CD15 against isotype control.

Iso. (antibody) registered an MFI in experiment [1] of 372.

In experiment [2], Isotype (antibody) registered a % of PBMCs CD33+ and isotype+ (upper right quadrant) of 0.03%; a % of PBMCs CD33- and isotype+ (lower right quadrant) of 1.07%. In experiment [3], this substance came in with a % of PBMCs CD19+ and isotype+ (upper right quadrant) of 0.91%; a % of PBMCs CD19- and isotype+ (lower right quadrant) of 0.05%. In experiment [4], this substance came in with a % of gated neutrophils CD15+ and isotype+ (upper right quadrant) of 0.04%; a % of gated neutrophils CD15- and isotype+ (lower right quadrant) of 0.02%.

Source of the values: patent publication US20260226173A1, “COMPOSITIONS INCLUDING ANTI-WT-1 ANTIBODIES & ANTIGEN BINDING FRAGMENTS AND USES THEREOF” (Memorial Sloan-Kettering Cancer Center, priority 2023, published 2026).
